Data: the supplement of paper PMC9732359
± gives the uncertainty stated by the source.

Test: protein stability index of a GFP-peptide fusion (yeast GPS) (PSI 1-4); higher = more stable; sorted into four equal gates, so the index is relative within each strain
Procedure, shortened: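 For each peptide, the protein stability index sums the read frequency in every gate after multiplying it by the gate number. Read frequencies came from plasmids that were PCR-amplified from each gate and Illumina-sequenced, with reads assigned to strains by barcodes. The gates were four equal bins of GFP/Cherry fluorescence ratio applied to mid-log yeast in leucine-free medium carrying a pooled library of tiled 17-residue yeast protein peptides fused downstream of GFP on a Cherry-expressing plasmid.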

NHFIFNVESAGAMTPEE [RPC40]
protein stability index (doa10∆): 2.01 ± 0.059 | protein stability index (pdr5∆): 2.02 ± 0.061 | protein stability index (san1∆): 2.4 ± 0.062 | protein stability index (ubr1∆): 2.47 ± 0.045

IKNGRIYFTVPNEFEIQ [RGR1]
protein stability index (doa10∆): 2.62 ± 0.06 | protein stability index (pdr5∆): 2.49 ± 0.045 | protein stability index (san1∆): 2.45 ± 0.049 | protein stability index (ubr1∆): 2.57 ± 0.043

KLWFQLSESLTKFFDDA [RPN9]
protein stability index (doa10∆): 3.02 ± 0.083 | protein stability index (pdr5∆): 3.24 ± 0.099 | protein stability index (san1∆): 3.02 ± 0.066 | protein stability index (ubr1∆): 3.17 ± 0.097

SLPSKLTKYKEMERIVK [SRP68]
protein stability index (doa10∆): 2.59 ± 0.055 | protein stability index (pdr5∆): 2.55 ± 0.064 | protein stability index (san1∆): 2.42 ± 0.046 | protein stability index (ubr1∆): 2.86 ± 0.044

YQSSVQEPFLNSSNYAE [PRP8]
protein stability index (doa10∆): 2.99 ± 0.055 | protein stability index (pdr5∆): 2.96 ± 0.052 | protein stability index (san1∆): 2.78 ± 0.053 | protein stability index (ubr1∆): 2.9 ± 0.043

ADTIDHDELIDSIPRDV [YGL172W/NUP49]
protein stability index (doa10∆): 2.95 ± 0.098 | protein stability index (pdr5∆): 3.24 ± 0.085 | protein stability index (san1∆): 3.07 ± 0.056 | protein stability index (ubr1∆): 2.88 ± 0.075

IELLCGLGKSAVNWQDK [NAS6]
protein stability index (san1∆): 3.75 ± 0.086

LSLTLNTHYHADYRLIL [SNF2]
protein stability index (doa10∆): 2.83 ± 0.077 | protein stability index (pdr5∆): 2.98 ± 0.08 | protein stability index (san1∆): 2.75 ± 0.1 | protein stability index (ubr1∆): 2.65 ± 0.073

LMTKLNSFKLFKAEKLQ [RPC17]
protein stability index (doa10∆): 1.97 ± 0.059 | protein stability index (pdr5∆): 1.88 ± 0.054 | protein stability index (san1∆): 1.92 ± 0.06 | protein stability index (ubr1∆): 1.75 ± 0.04

RAIYSYLSGAIPNQEVL [YDL116W/NUP84]
protein stability index (doa10∆): 2.4 ± 0.066 | protein stability index (pdr5∆): 2.58 ± 0.079 | protein stability index (san1∆): 2.5 ± 0.089 | protein stability index (ubr1∆): 2.76 ± 0.055

DDIINNDEPSHKKIKVA [SIR2]
protein stability index (doa10∆): 2.77 ± 0.052 | protein stability index (pdr5∆): 2.84 ± 0.037 | protein stability index (san1∆): 2.64 ± 0.041 | protein stability index (ubr1∆): 2.87 ± 0.042

VDNENNKPAIKEDSTIQ [SWI3]
protein stability index (doa10∆): 2.84 ± 0.063 | protein stability index (pdr5∆): 2.97 ± 0.069 | protein stability index (san1∆): 3.08 ± 0.058 | protein stability index (ubr1∆): 3.12 ± 0.062

QESLVKLFTTNELMRWP [RPN5]
protein stability index (doa10∆): 2.96 ± 0.21 | protein stability index (pdr5∆): 3.72 ± 0.3 | protein stability index (san1∆): 3.15 ± 0.12 | protein stability index (ubr1∆): 2.91 ± 0.13

RQFSNEEVNRCYLRWQH [SNF2]
protein stability index (doa10∆): 2.83 ± 0.081 | protein stability index (pdr5∆): 2.78 ± 0.08 | protein stability index (san1∆): 2.95 ± 0.086 | protein stability index (ubr1∆): 3.01 ± 0.071

LKTVIILSSLYLLSIWV [CYT1]
protein stability index (doa10∆): 2.12 ± 0.11 | protein stability index (pdr5∆): 1.45 ± 0.092 | protein stability index (san1∆): 1.24 ± 0.15 | protein stability index (ubr1∆): 1.17 ± 0.056

GDRQRLGEEHPLQVARC [RPT1]
protein stability index (doa10∆): 1.43 ± 0.097 | protein stability index (pdr5∆): 1.32 ± 0.19 | protein stability index (san1∆): 3.25 ± 0.22 | protein stability index (ubr1∆): 1.53 ± 0.15

LQYLPLYAVSTFENTNN [SIR4]
protein stability index (doa10∆): 1.82 ± 0.038 | protein stability index (pdr5∆): 1.71 ± 0.042 | protein stability index (san1∆): 1.41 ± 0.057 | protein stability index (ubr1∆): 2.31 ± 0.046

KNTEEGKALVHHYEECA [QCR6]
protein stability index (doa10∆): 3.37 ± 0.067 | protein stability index (pdr5∆): 3.29 ± 0.072 | protein stability index (san1∆): 3.5 ± 0.051 | protein stability index (ubr1∆): 3.38 ± 0.052

FPPPSVAARAEILRIHS [RPT6]
protein stability index (doa10∆): 1.72 ± 0.074 | protein stability index (pdr5∆): 2.5 ± 0.085 | protein stability index (san1∆): 1.54 ± 0.12 | protein stability index (ubr1∆): 1.74 ± 0.046

VQISNIPDIGDLPDTEG [PRP8]
protein stability index (doa10∆): 3.24 ± 0.07 | protein stability index (pdr5∆): 3.29 ± 0.059 | protein stability index (san1∆): 3.2 ± 0.049 | protein stability index (ubr1∆): 3.23 ± 0.043

QIQQQQQKQQQQQQQHQ [SNF5]
protein stability index (doa10∆): 2.53 ± 0.12 | protein stability index (pdr5∆): 2.97 ± 0.14 | protein stability index (san1∆): 2.93 ± 0.12 | protein stability index (ubr1∆): 2.61 ± 0.22

EQENMRKVREQEELKKR [MED2]
protein stability index (pdr5∆): 3.13 ± 0.19 | protein stability index (ubr1∆): 3.56 ± 0.11

VSAAEDESLIRELYKYV [PRP28]
protein stability index (doa10∆): 3.27 ± 0.11 | protein stability index (pdr5∆): 3.27 ± 0.13 | protein stability index (san1∆): 2.95 ± 0.084 | protein stability index (ubr1∆): 2.94 ± 0.098

FVCEKSIEFAKREKRVF [RPN6]
protein stability index (ubr1∆): 2.41 ± 0.25

THEDLPKEVDGLEVGPV [IRR1]
protein stability index (doa10∆): 3.21 ± 0.091 | protein stability index (pdr5∆): 3.35 ± 0.11 | protein stability index (san1∆): 3.06 ± 0.094 | protein stability index (ubr1∆): 3.18 ± 0.086

LKKRYDLSYNFNVHEVP [YMR129W/POM152]
protein stability index (doa10∆): 2.78 ± 0.05 | protein stability index (pdr5∆): 2.6 ± 0.056 | protein stability index (san1∆): 2.7 ± 0.058 | protein stability index (ubr1∆): 2.82 ± 0.042

FYKNKYSSKPYKVDNMT [RPN2]
protein stability index (doa10∆): 2.44 ± 0.067 | protein stability index (pdr5∆): 2.84 ± 0.072 | protein stability index (san1∆): 2.79 ± 0.081 | protein stability index (ubr1∆): 2.1 ± 0.075

IKILGSEGYQKTFSRLD [RPN4]
protein stability index (doa10∆): 1.28 ± 0.089 | protein stability index (pdr5∆): 1.55 ± 0.15 | protein stability index (san1∆): 1.05 ± 0.24

LRDTFIELDQVLNMLYW [RPO21]
protein stability index (doa10∆): 2.19 ± 0.1 | protein stability index (pdr5∆): 2.51 ± 0.058 | protein stability index (san1∆): 2.4 ± 0.07 | protein stability index (ubr1∆): 2.27 ± 0.06

RKWAARAASAKIESSVE [RPS8A]
protein stability index (doa10∆): 3.21 ± 0.087 | protein stability index (pdr5∆): 3.2 ± 0.062 | protein stability index (san1∆): 2.74 ± 0.056 | protein stability index (ubr1∆): 3.4 ± 0.054

LLERYIGNLITRQFEGR [PRP8]
protein stability index (doa10∆): 2.59 ± 0.11 | protein stability index (pdr5∆): 2.63 ± 0.18 | protein stability index (san1∆): 2.43 ± 0.15 | protein stability index (ubr1∆): 1.99 ± 0.071

KNYLKNYILNFKQSNSE [CDC53]
protein stability index (doa10∆): 2.6 ± 0.044 | protein stability index (pdr5∆): 1.95 ± 0.043 | protein stability index (san1∆): 2.34 ± 0.083 | protein stability index (ubr1∆): 1.89 ± 0.037

SANGYLNATTAMDLAQM [BRR2]
protein stability index (doa10∆): 3.23 ± 0.17 | protein stability index (san1∆): 3.15 ± 0.088

KVVEFAITHMIDALGTE [SCL1]
protein stability index (doa10∆): 2.03 ± 0.044 | protein stability index (pdr5∆): 2.28 ± 0.038 | protein stability index (san1∆): 2.27 ± 0.079 | protein stability index (ubr1∆): 2.18 ± 0.023

NRQVMHKMGVERSSKRL [SIR3]
protein stability index (doa10∆): 3.23 ± 0.17 | protein stability index (pdr5∆): 3.49 ± 0.14 | protein stability index (san1∆): 3.46 ± 0.14 | protein stability index (ubr1∆): 3.34 ± 0.19

KIPDTYTANTSAQSIAS [YAR002W/NUP60]
protein stability index (doa10∆): 1.99 ± 0.049 | protein stability index (pdr5∆): 2.13 ± 0.056 | protein stability index (san1∆): 2.07 ± 0.059 | protein stability index (ubr1∆): 2.56 ± 0.034

SLFTYFREAIVATEPLL [PRP8]
protein stability index (doa10∆): 1.82 ± 0.048 | protein stability index (pdr5∆): 1.83 ± 0.051 | protein stability index (san1∆): 2.73 ± 0.063 | protein stability index (ubr1∆): 1.97 ± 0.041

LSYISALGMMTRISSQF [RET1]
protein stability index (doa10∆): 1.41 ± 0.063 | protein stability index (pdr5∆): 1.34 ± 0.057 | protein stability index (san1∆): 1.43 ± 0.16 | protein stability index (ubr1∆): 1.14 ± 0.054

KVGYTLPSHIISTSDVT [RPL4A]
protein stability index (doa10∆): 2.49 ± 0.048 | protein stability index (pdr5∆): 2.69 ± 0.043 | protein stability index (san1∆): 2.58 ± 0.039 | protein stability index (ubr1∆): 2.5 ± 0.035

AIMKPYYLWTGKQVFSL [RPO31]
protein stability index (doa10∆): 2.71 ± 0.13 | protein stability index (pdr5∆): 2.91 ± 0.11 | protein stability index (san1∆): 2.83 ± 0.085 | protein stability index (ubr1∆): 2.72 ± 0.061

SVRLFSFLDPLNYGNIC [YJL039C/NUP192]
protein stability index (doa10∆): 1.88 ± 0.053 | protein stability index (pdr5∆): 2.21 ± 0.069 | protein stability index (san1∆): 2.47 ± 0.061 | protein stability index (ubr1∆): 2 ± 0.063

NDENDDEFYINVDKNLN [RPN14]
protein stability index (doa10∆): 2.96 ± 0.19 | protein stability index (pdr5∆): 2.72 ± 0.12 | protein stability index (san1∆): 2.94 ± 0.11 | protein stability index (ubr1∆): 3.05 ± 0.12

DSGRGAPLAKVVFRDPY [RPL2A]
protein stability index (doa10∆): 3.06 ± 0.12 | protein stability index (pdr5∆): 2.83 ± 0.13 | protein stability index (san1∆): 3.03 ± 0.072 | protein stability index (ubr1∆): 3.01 ± 0.067

QSISGTLELSAQFRVPR [SWP82]
protein stability index (doa10∆): 2.46 ± 0.077 | protein stability index (pdr5∆): 2.77 ± 0.069 | protein stability index (san1∆): 2.52 ± 0.084 | protein stability index (ubr1∆): 2.79 ± 0.066
